Experimental findings from paper PMC6392469 (Cellular signalling, 2018) are described below.

Residue numbers refer to the chain shown, from its start. Non-standard residues stand in square brackets, D forms with d. No end group written: not given here. fluorescein = fluorescein-6-aminohexanoyl label; pY = N[C@@H](Cc1ccc(OP(=O)(O)O)cc1)C(=O)O; Ahx = NCCCCCC(=O)O

Assay [1] has as its target T1, C1-Ten SH2 domain (C1-Ten/Tensin2) (Homo sapiens, UniProt Q63HR2, K1142Q/K1155Q/K1157Q).
T1 sequence (Q63HR2 1120-1253 K1142Q/K1155Q/K1157Q): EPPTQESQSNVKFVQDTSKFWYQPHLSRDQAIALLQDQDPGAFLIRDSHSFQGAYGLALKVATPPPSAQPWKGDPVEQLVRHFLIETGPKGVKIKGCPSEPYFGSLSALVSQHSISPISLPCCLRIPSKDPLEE
The experiment in a line: equilibrium SPR, L1 chip with lipid vesicles. The assay is classed as binding.

In assay [2] the target is T2, C1-Ten SH2 domain (C1-Ten/Tensin2) (Homo sapiens, UniProt Q63HR2).
T2 sequence (Q63HR2 1120-1253): T1 sequence (Q63HR2 1120-1253 K1142Q/K1155Q/K1157Q) with Q23K, Q36K, Q38K
As to the kind of experiment: equilibrium SPR, L1 chip with lipid vesicles. Type of assay: binding.

Assay [3] deals with T3, C1-Ten/Tensin2 SH2 domain, wild type (UniProt Q63HR2 1120-1253).
T3 sequence (looked up): T1 sequence (Q63HR2 1120-1253 K1142Q/K1155Q/K1157Q) with Q23K, Q36K, Q38K
The experiment in a line: fluorescence polarisation.

Assay [4] deals with T4, C1-Ten/Tensin2 SH2 domain K1142Q/K1155Q/K1157Q (UniProt Q63HR2 1120-1253, K1142Q | K1155Q | K1157Q).
T4 sequence (looked up): T1 sequence (Q63HR2 1120-1253 K1142Q/K1155Q/K1157Q)
As to the kind of experiment: fluorescence polarisation. In general terms: In fluorescence polarisation assays a small probe gives low polarisation when free and higher when bound to something large.

The target of assay [5] is T5, C1-Ten/Tensin2 SH2 domain R1165A (UniProt Q63HR2 1120-1253, R1165A).
T5 sequence (looked up): T1 sequence (Q63HR2 1120-1253 K1142Q/K1155Q/K1157Q) with Q23K, Q36K, Q38K, R46A
The experiment in a line: fluorescence polarisation.

In general, Kd refers to the equilibrium constant for the complex coming apart. Take `CCCCCCCCCCCCCCCC(=O)OC[C@H](COP(=O)(O)O[C@H]1[C@H](O)[C@@H](OP(=O)(O)O)[C@H](OP(=O)(O)O)[C@@H](OP(=O)(O)O)[C@H]1O)OC(=O)CCCCCCCCCCCCCCC` [PtdIns(3,4,5)P3]: the results for the dissociation constant (Kd) in assay [1] and in assay [2] were 1260 ± 128 nM and 260 ± 40 nM, respectively.

B1: F-Ahx-NEpYDNV, fluorescein-6-aminohexanoyl-labeled pY-containing peptide (peptide)
peptide: {fluorescein-Ahx}-NE[pY]DNV
Turning to B1, the equilibrium dissociation constant (Kd) in assay [3] is 2500 ± 1300 nM; in assay [4] it was 3600 ± 1400 nM; in assay [5], 90900 ± 11400 nM.
